Laboratory results from PMC5472690, “3-Hydroxybenzoate 6-Hydroxylase from Rhodococcus jostii RHA1 Contains a Phosphatidylinositol Cofactor” (Frontiers in Microbiology, 2017).

Experiments:
Rj3HB6H = target: T1, Rj3HB6H (Rhodococcus jostii, UniProt Q0SFK6); assay: X-ray crystal structure, […] Å; type: binding; conditions: pH 8.5 precipitant; co-bound phospholipid
T1 construct: gene RHA1_ro01869; full length, C-terminal His6 tag, produced in R. jostii RHA1#2; N-terminal Met lacking; 46,761 Da subunit; homodimer

O=C(O)c1cccc(O)c1 = assay: purified protein; conditions: fixed NADH, 50 mM Tris-SO4, pH 8.0, 25°C
purified protein = substrate: NC(=O)C1=CN([C@@H]2O[C@H](COP(=O)(O)OP(=O)(O)OC[C@H]3O[C@@H](n4cnc5c(N)ncnc54)[C@H](O)[C@@H]3O)[C@@H](O)[C@H]2O)C=CC1; assay: purified protein; conditions: fixed 3-hydroxybenzoate, 50 mM Tris-SO4, pH 8.0, 25°C

In the case of Cc1cc2nc3c(=O)[nH]c(=O)nc-3n(C[C@H](O)[C@H](O)[C@H](O)COP(=O)(O)OP(=O)(O)OC[C@H]3O[C@@H](n4cnc5c(N)ncnc54)[C@H](O)[C@@H]3O)c2cc1C [FAD], the “X-ray crystal structure, 2.3 Å” value (Rj3HB6H) is reported as “The isoalloxazine moiety of FAD was refined with full occupancy”.

Work on Rj3HB6H (Rhodococcus jostii RHA1) yielded a Km (O=C(O)c1cccc(O)c1) of 35 ± 3 µM and a kcat (O=C(O)c1cccc(O)c1) of 20 ± 1 s⁻¹.

B1: Rj3HB6H (Rhodococcus jostii RHA1) (protein)
chain: SNLQDARIIIAGGGIGGAANALALAQKGANVTLFERASEFGEVGAGLQVGPHGARILDSWGVLDDVLSRAFLPKNIVFRDAITAEVLTKIDLGSEFRGRYGGPYFVTHRSDLHATLVDAARAAGAELHTGVTVTDVITEGDKAIVSTDDGRTHEADIALGMDGLKSRLREKISGDEPVSSGYAAYRGTTPYRDVELDEDIEDVVGYIGPRCHFIQYPLRGGEMLNQVAVFESPGFKNGIENWGGPEELEQAYAHCHENVRRGIDYLWKDRWWPMYDREPIENWVDGRMILLGDAAHPPLQYLASGAVMAIEDAKCLADYAAEDFSTGGNSAWPQILKEVNTERAPRCNRILTTGRMWGELWHLDGTARIARNELFRTRDTSSYKYTDWLWGYSSDRAS
For B1, the Km (purified protein) was 68 ± 5 µM and the kcat (purified protein) was 20 ± 1 s⁻¹.
